In this experiment the target is EphB2-KD-GFP (UniProt P54763). Nature of the experiment: co-IP; anti-GFP antibody on ProteinA/G agarose, overnight, pre-cleared lysates of co-transfected HEK293 cells (10mM Tris-Cl pH 8, 137 mM NaCl, 2mM EDTA, 1% NP40); blot for Myc; in the ligand experiments cells were starved 2 hr in OPTIMEM and incubated 15 min at 37°C with pre-clustered Fc, eB2-Fc or eA3-Fc (1.5 μg/ml), Netrin-1 (250 ng/ml) or eB2-Fc+Netrin-1 before lysis.
EphB2-KD-GFP, sequence (P54763 19-986): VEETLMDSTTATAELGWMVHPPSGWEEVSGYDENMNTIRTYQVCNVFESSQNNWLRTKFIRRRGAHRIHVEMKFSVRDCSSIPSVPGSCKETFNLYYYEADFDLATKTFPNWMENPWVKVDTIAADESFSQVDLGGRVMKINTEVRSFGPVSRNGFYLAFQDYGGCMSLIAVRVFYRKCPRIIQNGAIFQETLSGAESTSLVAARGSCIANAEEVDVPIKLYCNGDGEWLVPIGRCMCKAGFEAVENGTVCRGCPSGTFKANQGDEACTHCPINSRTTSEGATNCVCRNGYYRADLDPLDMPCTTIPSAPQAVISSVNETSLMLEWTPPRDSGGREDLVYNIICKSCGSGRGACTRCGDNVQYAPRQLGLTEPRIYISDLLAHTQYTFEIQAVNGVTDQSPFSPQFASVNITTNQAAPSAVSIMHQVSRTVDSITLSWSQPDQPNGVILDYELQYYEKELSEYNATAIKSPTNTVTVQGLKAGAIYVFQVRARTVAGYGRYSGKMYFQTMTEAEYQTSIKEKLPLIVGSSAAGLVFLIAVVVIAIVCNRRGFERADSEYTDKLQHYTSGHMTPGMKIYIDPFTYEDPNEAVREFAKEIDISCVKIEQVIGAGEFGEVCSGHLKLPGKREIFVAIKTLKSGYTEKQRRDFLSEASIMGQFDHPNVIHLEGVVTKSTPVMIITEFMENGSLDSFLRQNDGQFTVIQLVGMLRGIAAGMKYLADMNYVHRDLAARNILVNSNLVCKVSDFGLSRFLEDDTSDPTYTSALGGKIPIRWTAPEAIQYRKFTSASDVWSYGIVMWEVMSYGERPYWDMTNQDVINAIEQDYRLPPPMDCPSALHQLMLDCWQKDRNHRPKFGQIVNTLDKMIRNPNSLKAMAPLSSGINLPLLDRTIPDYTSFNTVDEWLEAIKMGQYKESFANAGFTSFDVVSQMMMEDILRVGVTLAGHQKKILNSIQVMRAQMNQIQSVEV

Unc5c-Myc, sequence (O08747 41-931): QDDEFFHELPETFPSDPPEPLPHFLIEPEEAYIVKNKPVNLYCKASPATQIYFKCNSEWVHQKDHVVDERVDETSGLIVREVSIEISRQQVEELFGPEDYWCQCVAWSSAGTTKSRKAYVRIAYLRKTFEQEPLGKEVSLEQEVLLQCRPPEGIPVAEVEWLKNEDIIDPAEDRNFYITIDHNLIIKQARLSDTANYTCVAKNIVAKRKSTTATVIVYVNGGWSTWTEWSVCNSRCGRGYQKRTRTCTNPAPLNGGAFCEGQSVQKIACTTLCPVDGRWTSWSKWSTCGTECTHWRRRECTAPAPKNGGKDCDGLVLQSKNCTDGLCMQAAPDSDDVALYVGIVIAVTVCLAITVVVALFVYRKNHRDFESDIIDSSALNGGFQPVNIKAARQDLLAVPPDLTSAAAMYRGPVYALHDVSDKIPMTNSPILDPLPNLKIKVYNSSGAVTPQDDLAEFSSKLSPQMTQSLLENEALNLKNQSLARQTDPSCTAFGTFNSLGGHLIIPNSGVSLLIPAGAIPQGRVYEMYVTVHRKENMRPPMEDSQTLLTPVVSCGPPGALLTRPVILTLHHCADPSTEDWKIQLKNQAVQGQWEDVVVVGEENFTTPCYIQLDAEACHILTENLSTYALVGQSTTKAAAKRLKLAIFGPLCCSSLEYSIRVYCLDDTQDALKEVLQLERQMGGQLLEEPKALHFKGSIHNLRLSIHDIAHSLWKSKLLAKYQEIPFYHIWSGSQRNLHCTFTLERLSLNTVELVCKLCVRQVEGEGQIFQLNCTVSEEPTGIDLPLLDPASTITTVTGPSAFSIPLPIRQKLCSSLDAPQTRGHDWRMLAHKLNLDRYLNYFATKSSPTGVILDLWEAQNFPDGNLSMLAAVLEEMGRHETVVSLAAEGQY

As to “Unc5c-Myc (from UniProt O08747 41-931) (receptor)”, the percent reduction of the interaction against wild-type EphB2-GFP amounted to 67%.

(Values after publication PMC4764565.)
